The source of these data is patent US20220195053A1 (SURROZEN OPERATING, published 2022).

For test [1], the target named is T1, Mucin 13, cell surface associated (MUC-13), on human intestine HT29 cells (human, UniProt Q9H3R2 19-512).
T1 construct: whole, on cells
T1 sequence (looked up): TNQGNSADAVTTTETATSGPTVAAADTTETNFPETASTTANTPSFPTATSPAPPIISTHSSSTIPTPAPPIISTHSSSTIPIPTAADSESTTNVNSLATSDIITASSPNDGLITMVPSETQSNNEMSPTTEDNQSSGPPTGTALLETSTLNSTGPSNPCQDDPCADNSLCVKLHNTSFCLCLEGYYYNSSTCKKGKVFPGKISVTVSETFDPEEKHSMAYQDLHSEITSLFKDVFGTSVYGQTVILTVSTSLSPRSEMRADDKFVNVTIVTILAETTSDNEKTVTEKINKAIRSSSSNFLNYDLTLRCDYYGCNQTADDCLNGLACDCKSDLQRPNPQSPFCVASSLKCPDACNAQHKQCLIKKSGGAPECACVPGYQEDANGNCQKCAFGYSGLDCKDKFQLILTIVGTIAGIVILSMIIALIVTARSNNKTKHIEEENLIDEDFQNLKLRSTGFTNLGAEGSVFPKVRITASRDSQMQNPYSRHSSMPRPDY
Put plainly: Flow cytometry (FACS) on MUC-13 expressing HT29 cells, antibody at 10 nM, fluorescent goat anti-human secondary antibody, compared with the anti-GFP IgG control. MUC-13 negative HEK293 cells serve as the specificity control. On the procedure: (§1) Cell surface binding of the MUC-13 antibodies was examined by FACS at 10 nM.
(§2) The MUC-13 binders C4, C7, and C14 (see, e.g., WO2016168607A1) were cloned and produced in the full-length IgG format and their binding capacity to MUC-13 was determined by FACS analysis to MUC-13 expressing HT29 cells. Their potential binding to MUC-13 non-expressing HEK293 cells was also analyzed as a negative control. Cells were harvested and washed 2× with FACS buffer (PBS (—Ca²⁺, —Mg²⁺), 0.1% BSA, 0.5% sodium Azide) and resuspended in FACS buffer at 10⁶ cells/ml. 60 μl of the cell suspension was aliquoted to each well of a 96-well v bottom plate, and the plate was spun for 3 min at 1500 rpm to remove the FACS buffer before adding corresponding MUC-13 antibody or anti-GFP control antibody at 10 nM diluted in FACS buffer and incubated at 4C for 1 hour. Plate was then spun to remove the primary antibodies and washed 1× with FACS buffer before adding Alexa Fluor® 488 goat anti-human secondary antibody (ThermoFisher Scientific) and incubating at 4C for 30 min. This media was then removed after spinning, and the plate washed 1× in FACS buffer. Cells were then resuspended in […] FACS buffer and analyzed on a BD Accuri™ Cell Analyzers (Becton Dickinson) at 10,000 events. […]
Background: A flow cytometer gives signals particle by particle.

The target in test [2] is T1, Mucin 13, cell surface associated …. Nature of the test: Flow cytometry (FACS) on MUC-13 expressing HT29 cells, antibody at 10 nM, compared with the anti-GFP IgG control. HEK293 cells serve as the MUC-13 negative control. On the procedure: as §1, §2

B1: C14 MUC-13 antibody, full-length IgG format (antibody, V domains shown)
VH: QVQLQQSGAELVRPGSSVKISCKASGYAFSTYWMNWVKQRPGQGLEWIGQIYPGDGDTYYNGNFKGKATLTADKSSSTAYMQLSSLTSEDSAVYFCAVFWDGYWGQGTTLTVSS
VL: QIVLTQSPTIMSASPGEKVTMTCSASSSVTYIHWYQQKSGTSPKRWIYDTSKLASGVPARFGGSGSGTSYSLTINSMETEDAATYYCQQWSSNPFTFGSGTKLEIKR
Take B1: the binding result in test [1] is listed as “binds”.

B2: C4 MUC-13 antibody, full-length IgG format (antibody, V domains shown)
VH: DVQLQESGPGLVKPSQSLSLTCSVTGYSITSGYYWNWIRQFPGNKLEWMGYISYDGSNNYNPSLKNRISITRDTSKNQFFLKLNSVTTEDTATYYCVRVPTMITSYYFDYWGQGTTLTVSS
VL: QIVLTQSPAIMSASPGEKVTISCSASSSVGYIYWYQQKPGSSPKPWIYRTSNLASGVPARFSGSGSGTSYSLTISSMEAEDAATYYCQQYHSYPPTFGGGTKLEIKR
In the case of B2, the binding result in test [2] is listed as “no binding (tested: 10 nM)”.
